Reference: ChEMBL document CHEMBL1208712, “Synthesis and anti-HCV activity of 3',4'-oxetane nucleosides” (Bioorg Med Chem Lett, 2010)
Blank lines part the entries; values can stand above or below the molecule they belong to. Active and inactive are the calls of the source. The rule behind the calls is not given here.

Legend:
[1] = tested on: Nc1ccn([C@@H]2O[C@@]3(CO)CO[C@H]3C2(F)F)c(=O)n1; experiment: (§1) Activity at human recombinant deoxycytidine kinase expressed in HepG2 cells; assay type: cell-based
[2] = tested on: Nc1ccn([C@@H]2O[C@@]3(CO)CO[C@H]3[C@@H]2F)c(=O)n1; experiment: as §1; assay type: cell-based
[3] = tested on: Nc1ccn([C@@H]2O[C@@]3(CO)CO[C@H]3[C@H]2F)c(=O)n1; experiment: as §1; assay type: cell-based
[4] = tested on: Nc1ccn([C@@H]2O[C@@]3(CO)CO[C@H]3C2(F)F)c(=O)n1; experiment: (§2) Ratio of Kcat/Km for human recombinant deoxycytidine kinase
[5] = tested on: Nc1ccn([C@@H]2O[C@@]3(CO)CO[C@H]3[C@@H]2F)c(=O)n1; experiment: as §2
[6] = tested on: Nc1ccn([C@@H]2O[C@@]3(CO)CO[C@H]3[C@H]2F)c(=O)n1; experiment: as §2
[7] = molecular target: T1, UMP-CMP kinase (Homo sapiens) (UniProt P30085); experiment: Activity at human recombinant UMP-CMP kinase
T1 sequence (whole entry): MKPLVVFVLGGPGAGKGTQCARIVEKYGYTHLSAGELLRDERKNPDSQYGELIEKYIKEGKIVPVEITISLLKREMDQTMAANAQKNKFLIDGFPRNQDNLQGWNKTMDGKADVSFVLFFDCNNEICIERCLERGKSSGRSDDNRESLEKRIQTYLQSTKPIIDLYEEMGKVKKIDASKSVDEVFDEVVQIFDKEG

Deoxycytidine kinase (Homo sapiens), P27707, sequence (P27707 whole entry): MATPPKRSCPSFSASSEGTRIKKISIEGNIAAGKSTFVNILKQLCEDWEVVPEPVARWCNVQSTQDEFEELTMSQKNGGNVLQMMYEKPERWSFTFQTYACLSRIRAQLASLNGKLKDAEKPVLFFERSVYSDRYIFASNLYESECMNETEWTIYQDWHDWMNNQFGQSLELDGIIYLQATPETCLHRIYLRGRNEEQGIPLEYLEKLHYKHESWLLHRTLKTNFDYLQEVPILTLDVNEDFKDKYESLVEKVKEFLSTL

Molecule: Deoxycytidine kinase (Homo sapiens), P27707
Km [1]: 27.6 µM
kcat [1]: 0.0599 s⁻¹
Km [2]: 81.1 µM
kcat [2]: 0.122 s⁻¹
Km [3]: 61 µM
kcat [3]: 0.0214 s⁻¹
kcat/Km (10'-3/microM/s) [4]: 2.2
kcat/Km (10'-3/microM/s) [5]: 1.5
kcat/Km [6]: 3.5 ×10⁻⁴ /µM/s

Activity [7]: inactive
Molecule: Nc1ccn([C@@H]2O[C@@]3(CO)CO[C@H]3[C@@H]2F)c(=O)n1

Activity [7]: inactive
Molecule: Nc1ccn([C@@H]2O[C@@]3(CO)CO[C@H]3[C@H]2F)c(=O)n1

Activity [7]: inactive
Molecule: Nc1ccn([C@@H]2O[C@@]3(CO)CO[C@H]3C2(F)F)c(=O)n1
